Patent US20240294670A1 (University of Texas, published 2024)

Assays:
Experiment in all cases: anti-His co-IP of rCHI3L1 from Kupffer cell lysate, MS; listed under 'proteins bound to CHI3L1'
Q8C6E3_MOUSE = target: T1, Q8C6E3_MOUSE (mouse, UniProt Q8C6E3 2-527)
T1 construct: also called tr|Q8C6E3|Q8C6E3_MOUSE
T1 sequence: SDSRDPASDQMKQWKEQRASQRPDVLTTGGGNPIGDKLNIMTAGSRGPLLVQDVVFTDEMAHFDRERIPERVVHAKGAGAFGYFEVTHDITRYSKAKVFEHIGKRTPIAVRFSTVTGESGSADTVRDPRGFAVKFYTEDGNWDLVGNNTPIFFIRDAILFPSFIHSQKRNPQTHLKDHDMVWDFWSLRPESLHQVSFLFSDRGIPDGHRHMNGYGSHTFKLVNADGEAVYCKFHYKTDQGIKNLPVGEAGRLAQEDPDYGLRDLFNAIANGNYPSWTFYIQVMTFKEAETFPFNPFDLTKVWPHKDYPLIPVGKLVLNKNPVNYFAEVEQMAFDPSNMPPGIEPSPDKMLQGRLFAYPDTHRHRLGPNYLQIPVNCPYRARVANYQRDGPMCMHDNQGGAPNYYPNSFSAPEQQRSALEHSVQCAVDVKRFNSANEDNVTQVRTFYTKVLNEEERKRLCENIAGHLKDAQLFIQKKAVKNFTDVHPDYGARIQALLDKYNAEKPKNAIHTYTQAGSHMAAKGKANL
Protocol: (§1) CHI3L1 interacts with CD44 on KCs. To further understand how CHI3L1 mediates the function of KCs to recruit platelets, the inventors set out to identify its receptor on KCs. They isolated KCs from WT mice treated with APAP for 3 h and incubated the cells with His-tagged rCHI3L1. The cell lysate was subjected to immunoprecipitation using an anti-His antibody. The “pulled down” fraction was subjected to LC/MS analyses. A partial list of proteins identified, including CHI3L1 itself, is shown in (Extended Data Table 1). Because CD44 is a cell membrane protein, the inventors decided to investigate it is a receptor for CHI3L1. They performed/immunoprecipitation experiments using liver homogenates obtained from WT and CD44^{-/-} mice after APAP treatment. […] Moreover, the inventors incubated rhCHI3L1 with human CD44 and then immunoprecipitated with an anti-CD44 antibody. The data confirmed a direct binding between CHI3L1 and CD44 (FIG. 3C). Consistent with the notion that many cell types express CD44, they detected CD44 express on various hepatic non-parenchymal cells (NPCs) except B cells and DCs (summarized in Extended Data Table 2). However, when they incubated liver NPCs with His-tagged rCHI3L1, the inventors observed that the only CD44-expressing cells that could bind to CHI3L1 were KCs (FIG. 3D).

Q5FW97_MOUSE = target: T2, Q5FW97_MOUSE (mouse, UniProt Q5FW97 2-434)
T2 construct: also called tr|Q5FW97|Q5FW97_MOUSE
T2 sequence (Q5FW97 entry or part of it limits assumed): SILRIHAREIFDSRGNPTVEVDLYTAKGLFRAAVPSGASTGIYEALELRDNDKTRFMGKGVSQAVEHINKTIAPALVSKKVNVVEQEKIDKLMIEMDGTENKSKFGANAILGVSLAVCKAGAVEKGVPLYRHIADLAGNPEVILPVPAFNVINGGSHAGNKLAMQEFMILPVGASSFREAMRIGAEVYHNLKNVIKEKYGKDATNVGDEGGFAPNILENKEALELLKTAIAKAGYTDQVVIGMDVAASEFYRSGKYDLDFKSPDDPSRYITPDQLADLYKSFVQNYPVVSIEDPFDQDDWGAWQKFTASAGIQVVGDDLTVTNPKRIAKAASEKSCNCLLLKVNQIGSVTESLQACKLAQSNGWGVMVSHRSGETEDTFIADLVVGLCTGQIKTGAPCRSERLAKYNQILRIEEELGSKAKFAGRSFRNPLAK
Protocol: as §1

Q3UEQ9_MOUSE = target: T3, Q3UEQ9_MOUSE (mouse, UniProt Q3UEQ9 28-926)
T3 construct: also called tr|Q3UEQ9|Q3UEQ9_MOUSE
T3 sequence: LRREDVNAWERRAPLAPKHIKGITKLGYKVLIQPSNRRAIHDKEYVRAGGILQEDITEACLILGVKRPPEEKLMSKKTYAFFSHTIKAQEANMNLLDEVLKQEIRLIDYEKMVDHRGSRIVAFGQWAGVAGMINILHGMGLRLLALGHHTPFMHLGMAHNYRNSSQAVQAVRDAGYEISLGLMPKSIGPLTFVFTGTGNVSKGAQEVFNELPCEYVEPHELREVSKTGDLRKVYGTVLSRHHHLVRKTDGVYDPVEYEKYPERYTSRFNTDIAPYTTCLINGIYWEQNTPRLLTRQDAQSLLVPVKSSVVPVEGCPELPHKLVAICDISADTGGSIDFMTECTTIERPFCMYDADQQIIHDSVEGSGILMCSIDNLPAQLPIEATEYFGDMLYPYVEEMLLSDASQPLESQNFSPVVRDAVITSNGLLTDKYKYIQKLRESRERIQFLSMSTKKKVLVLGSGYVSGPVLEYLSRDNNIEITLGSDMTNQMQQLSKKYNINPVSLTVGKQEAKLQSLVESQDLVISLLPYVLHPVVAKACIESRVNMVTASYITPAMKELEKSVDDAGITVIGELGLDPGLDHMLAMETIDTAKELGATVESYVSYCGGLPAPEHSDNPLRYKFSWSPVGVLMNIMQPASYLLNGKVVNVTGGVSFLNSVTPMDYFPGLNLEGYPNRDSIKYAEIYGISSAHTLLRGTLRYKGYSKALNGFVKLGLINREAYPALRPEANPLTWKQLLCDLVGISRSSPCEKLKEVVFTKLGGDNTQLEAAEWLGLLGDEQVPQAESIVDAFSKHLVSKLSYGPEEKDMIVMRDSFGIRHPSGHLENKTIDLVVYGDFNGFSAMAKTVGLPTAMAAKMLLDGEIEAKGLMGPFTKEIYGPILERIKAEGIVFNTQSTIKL
Protocol: as §1

Q3UQ71_MOUSE = target: T4, Q3UQ71_MOUSE (mouse, UniProt Q3UQ71 1-554)
T4 construct: also called tr|Q3UQ71|Q3UQ71_MOUSE
T4 sequence: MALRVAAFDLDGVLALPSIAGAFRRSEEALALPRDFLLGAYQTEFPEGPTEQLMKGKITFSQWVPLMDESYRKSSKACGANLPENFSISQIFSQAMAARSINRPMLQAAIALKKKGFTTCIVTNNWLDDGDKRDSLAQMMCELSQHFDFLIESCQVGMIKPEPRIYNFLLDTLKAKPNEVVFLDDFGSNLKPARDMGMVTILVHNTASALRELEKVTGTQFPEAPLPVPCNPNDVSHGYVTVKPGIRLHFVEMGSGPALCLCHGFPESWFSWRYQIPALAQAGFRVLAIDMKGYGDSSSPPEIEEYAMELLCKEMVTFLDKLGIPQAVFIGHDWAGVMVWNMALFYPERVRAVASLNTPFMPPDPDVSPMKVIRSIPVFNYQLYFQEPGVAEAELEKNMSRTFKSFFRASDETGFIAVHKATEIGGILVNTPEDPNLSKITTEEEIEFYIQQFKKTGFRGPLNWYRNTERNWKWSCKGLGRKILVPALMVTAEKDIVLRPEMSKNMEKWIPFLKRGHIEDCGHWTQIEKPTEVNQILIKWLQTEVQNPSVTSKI
Protocol: as §1

Measured: binding result

B1: recombinant mouse CHI3L1 (ligand)
chain: not shown
notes: His-tagged; also called mCHI3L1; mChi3l1
binds: all assays above
